Earlier results as cited in article PMC10966181.

Target: Tyr159 (UniProt position 159, ISIHVYGANIG)
Test: kinetics
Conditions: Catalytically active Fe(II)-MDO turning over the substrate 3MPA

3-mercaptopropionate dioxygenase (MDO) H157N variant (Azotobacter vinelandii; H157N)
pKa: 9.9 ± 0.1

3-mercaptopropionate dioxygenase (MDO, AvMDO) (Azotobacter vinelandii)
pKa: 9.2 ± 0.1
